These results are taken from publication PMC11381335, “Unraveling the structure and function of a novel SegC protein interacting with the SegAB chromosome segregation complex in Archaea” (Nucleic Acids Research, 2024).

The target in test [1] is T1, SegC (SSO0033) (Saccharolobus solfataricus, UniProt Q981B4).
T1 construct: full length 165 residues, C-terminal His6 (pET21b), E. coli BL21(DE3)
Description: X-ray crystal structure of ATP-soaked SegC crystals. It is filed as binding. Particulars: apo crystals soaked within one minute in 20 mM ATP, 2 mM MgCl2, pH 7.5; ADP modelled at the interface of two dimers (Tyr61, Arg73).

The target in test [2] is T1, SegC (SSO0033). Description: malachite green phosphate release. Particulars: 10 uM protein, 1 mM NTP, 2 mM MgCl2, 100 mM NaCl, pH 7.5, 37 °C, 1 h; no DNA. The test is classed as biochemical.
Test [3] has as its target SegC labeled with Alexa488 green-fluorescent dye (Saccharolobus solfataricus). Description: fluorescence polarisation; 10 nM Alexa488-labeled SegC; SegA or SegB in 2-fold serial dilution from 10 uM; room temperature, 30 min; 20 mM HEPES-NaOH pH 7.3, 100 mM NaCl, 2 mM MgCl2; concentration of protein that binds 50% of the labeled SegC.
Test [4] has as its target SegC (SSO0033) (Saccharolobus solfataricus). The experiment in a line: crystal structure; SegC crystals grown in 100 mM Tris-HCl pH 8.5, 300 mM potassium thiocyanate, 20°C; 2.8 Å; also soaked with 20 mM ATP (SegC-ADP).

Sequence of SegC labeled with Alexa488 green-fluorescent dye (Saccharolobus solfataricus) (Q981B4 entry or part of it): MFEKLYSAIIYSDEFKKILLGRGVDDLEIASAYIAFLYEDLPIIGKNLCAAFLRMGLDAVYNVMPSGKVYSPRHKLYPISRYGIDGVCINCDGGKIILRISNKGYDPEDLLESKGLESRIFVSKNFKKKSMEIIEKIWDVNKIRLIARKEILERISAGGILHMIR
T1 sequence (Q981B4 entry or part of it): as above

`Nc1ncnc2c1ncn2[C@@H]1O[C@H](COP(=O)(O)OP(=O)(O)O)[C@@H](O)[C@H]1O` [ADP]: the “X-ray crystal structure of ATP-soaked SegC crystals” value in test [1] was “In this SegC-ADP complex structure, two residues (Tyr61 and Arg73) were found to interact”.
Regarding `Nc1ccn([C@@H]2O[C@H](COP(=O)(O)OP(=O)(O)OP(=O)(O)O)[C@@H](O)[C@H]2O)c(=O)n1` [CTP], the “malachite green phosphate release” value in test [2] is given as “SegC exhibited catalytic activity against all of the tested NTPs with no apparent preference”.
In test [3], SegA (natural protein) registered a Kd of 1.8 µM.
The compound SegB (natural protein) showed a Kd in test [3] of 1.4 µM.
The compound SegC (SSO0033) (natural protein) gave a stoichiometry N in test [4] of 4.
